Results: patent US20060115897A1

Target: C4b (UniProt P0C0L4)
Assay: cell-based or functional assay

C4b, sequence (P0C0L4 20-1744): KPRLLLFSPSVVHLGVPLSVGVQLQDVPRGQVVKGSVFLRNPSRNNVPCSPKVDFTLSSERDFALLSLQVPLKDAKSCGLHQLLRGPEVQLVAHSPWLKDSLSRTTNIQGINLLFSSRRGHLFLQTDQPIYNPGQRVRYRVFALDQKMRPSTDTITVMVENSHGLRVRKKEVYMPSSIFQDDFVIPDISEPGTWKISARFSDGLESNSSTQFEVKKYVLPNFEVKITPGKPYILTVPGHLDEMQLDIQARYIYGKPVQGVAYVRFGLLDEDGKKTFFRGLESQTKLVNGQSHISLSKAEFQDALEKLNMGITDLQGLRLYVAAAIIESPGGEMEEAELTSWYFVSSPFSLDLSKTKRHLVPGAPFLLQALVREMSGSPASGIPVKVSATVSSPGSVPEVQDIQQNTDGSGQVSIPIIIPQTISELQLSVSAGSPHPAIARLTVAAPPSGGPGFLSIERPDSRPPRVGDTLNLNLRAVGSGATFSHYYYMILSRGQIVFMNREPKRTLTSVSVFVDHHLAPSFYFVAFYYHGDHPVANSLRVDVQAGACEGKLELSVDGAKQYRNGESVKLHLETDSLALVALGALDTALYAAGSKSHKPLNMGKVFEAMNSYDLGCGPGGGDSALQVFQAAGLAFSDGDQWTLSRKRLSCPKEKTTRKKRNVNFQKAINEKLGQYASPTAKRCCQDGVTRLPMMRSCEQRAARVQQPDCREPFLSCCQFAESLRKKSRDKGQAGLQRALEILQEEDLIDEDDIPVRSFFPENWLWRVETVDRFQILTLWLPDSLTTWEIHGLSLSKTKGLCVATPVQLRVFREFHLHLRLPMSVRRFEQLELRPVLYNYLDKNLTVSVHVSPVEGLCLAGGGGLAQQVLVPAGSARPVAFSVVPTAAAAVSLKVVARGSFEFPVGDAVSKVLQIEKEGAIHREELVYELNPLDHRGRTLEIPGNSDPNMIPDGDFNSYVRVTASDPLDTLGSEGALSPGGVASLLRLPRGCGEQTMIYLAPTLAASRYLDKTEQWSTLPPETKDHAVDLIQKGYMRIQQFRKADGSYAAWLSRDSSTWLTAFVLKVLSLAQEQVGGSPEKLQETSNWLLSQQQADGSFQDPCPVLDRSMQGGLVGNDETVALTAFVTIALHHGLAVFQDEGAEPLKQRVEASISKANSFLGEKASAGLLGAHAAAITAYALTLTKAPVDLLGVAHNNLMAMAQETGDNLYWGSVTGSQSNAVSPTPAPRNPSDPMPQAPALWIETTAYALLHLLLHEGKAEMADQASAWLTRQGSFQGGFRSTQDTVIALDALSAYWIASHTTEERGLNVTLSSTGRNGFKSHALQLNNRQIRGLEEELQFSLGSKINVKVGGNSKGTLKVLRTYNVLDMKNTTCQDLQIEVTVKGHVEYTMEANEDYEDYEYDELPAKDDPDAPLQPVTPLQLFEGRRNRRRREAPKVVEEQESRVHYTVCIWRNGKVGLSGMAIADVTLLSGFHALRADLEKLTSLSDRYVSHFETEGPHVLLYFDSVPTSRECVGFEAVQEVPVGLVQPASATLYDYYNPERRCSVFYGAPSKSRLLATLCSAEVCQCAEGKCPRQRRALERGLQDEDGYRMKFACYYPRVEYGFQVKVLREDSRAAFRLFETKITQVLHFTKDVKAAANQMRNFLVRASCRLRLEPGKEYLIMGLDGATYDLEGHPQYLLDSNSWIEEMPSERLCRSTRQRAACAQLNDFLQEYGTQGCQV

soluble human CR1 (from UniProt P17927 42-1971) (receptor)
time to 50% degradation of the C4bα′ chain (cofactor activity for factor I, densitometry): 15 min
